From paper PMC10611751 (2023)

B1: E-cadherin residues 828-842 (site-2) [mouse] / Ankyrin-G 24 ANK repeats (residues 38-855) [not stated] (parent complex)
chain 1: PYDSLLVFDYEGSGS
chain 2: KSDANASYLRAARAGHLEKALDYIKNGVDVNICNQNGLNALHLASKEGHVEVVSELLQREANVDAATKKGNTALHIASLAGQAEVVKVLVTNGANVNAQSQNGFTPLYMAAQENHLEVVRFLLDNGASQSLATEDGFTPLAVALQQGHDQVVSLLLENDTKGKVRLPALHIAARKDDTKAAALLLQNDTNADIESKMVVNRATESGFTPLHIAAHYGNINVATLLLNRAAAVDFTARNDITPLHVASKRGNANMVKLLLDRGAKIDAKTRDGLTPLHCGARSGHEQVVEMLLDRAAPILSKTKNGLSPLHMATQGDHLNCVQLLLQHNVPVDDVTNDYLTALHVAAHCGHYKVAKVLLDKKANPNAKALNGFTPLHIACKKNRIRVMELLLKHGASIQAVTESGLTPIHVAAFMGHVNIVSQLMHHGASPNTTNVRGETALHMAARSGQAEVVRYLVQDGAQVEAKAKDDQTPLHISARLGKADIVQQLLQQGASPNAATTSGYTPLHLSAREGHEDVAAFLLDHGASLSITTKKGFTPLHVAAKYGKLEVASLLLQKSASPDAAGKSGLTPLHVAAHYDNQKVALLLLDQGASPHAAAKNGYTPLHIAAKKNQMDIATSLLEYGADANAVTRQGIASVHLAAQEGHVDMVSLLLSRNANVNLSNKSGLTPLHLAAQEDRVNVAEVLVNQGAHVDAQTKMGYTPLHVGCHYGNIKIVNFLLQHSAKVNAKTKNGYTPLHQAAQQGHTHIINVLLQNNASPNELTVNGNTALAIARRLGYISVVDTLKVVTEEIMTTTTITEKHKMNVPETMNEVLDMS
B2: E-cadherin residues 854-869 (site-3) [mouse] / Ankyrin-G 24 ANK repeats (residues 38-855) [not stated] (parent complex)
chain 1: ESDQDQDYDYLNEWGN
chain 2: B1 chain 2
B3: E-cadherin residues 755-770 (site-1) [mouse] / Ankyrin-G 24 ANK repeats (residues 38-855) [not stated] (parent complex)
chain 1: YYYDEEGGGEEDQDFD
chain 2: B1 chain 2

Variants of: B1
Assay: ITC; parent: 1.9e+03 nM

Row | Kd [µM] | Variant
1 | 1.7 | chain 1 Y2A
2 | 9.5 | chain 1 Y10A

Variants of: B2
Assay: ITC; parent: 1.8e+03 nM

Row | Kd [µM] | Variant
3 | 3.9 | chain 1 Y10A
4 | 5.8 | chain 1 Y8A, chain 1 Y10A
5 | 3.9 | chain 1 W14A
6 | 3.2 | chain 1 Y8A

Variants of: B3
Assay: ITC; parent: 900 nM

Row | Kd [µM] | Variant
7 | 7.1 | chain 1 Y2A, chain 1 Y3A
8 | 5 | chain 1 Y1A
9 | 4.2 | chain 1 Y1A, chain 1 Y2A
10 | 2.2 | chain 1 Y3A
11 | 2.2 | chain 1 Y2A
12 | 4.1 | chain 1 Y1A, chain 1 Y3A
